According to publication doi:10.1101/298208 (bioRxiv, 2018):

Target: the molecule itself
Test: native gel or EMSA

B1: scavenger receptor class BI (SR-BI) (receptor)
chain: MGGSSRARWVALGLGALGLLFAALGVVMILMVPSLIKQQVLKNVRIDPSSLSFGMWKEIPVPFYLSVYFFEVVNPNEVLNGQKPVVRERGPYVYREFRQKVNITFNDNDTVSFVENRSLHFQPDKSHGSESDYIVLPNILVLGGSILMESKPVSLKLMMTLALVTMGQRAFMNRTVGEILWGYDDPFVHFLNTYLPDMLPIKGKFGLFVGMNNSNSGVFTVFTGVQNFSRIHLVDKWNGLSKIDYWHSEQCNMINGTSGQMWAPFMTPESSLEFFSPEACRSMKLTYNESRVFEGIPTYRFTAPDTLFANGSVYPPNEGFCPCRESGIQNVSTCRFGAPLFLSHPHFYNADPVLSEAVLGLNPNPKEHSLFLDIHPVTGIPMNCSVKMQLSLYIKSVKGIGQTGKIEPVVLPLLWFEQSGAMGGKPLSTFYTQLVLMPQVLHYAQYVLLGLGGLLLLVPIICQLRSQEKCFLFWSGSKKGSQDKEAIQAYSESLMSPAAKGTVLQEAKL
- stoichiometry N: 2
